For one substance, Kd results are on record in publication PMC5912448.

For orientation: Kd means the constant that tells how readily two partners part at equilibrium. Higher therefore signals weaker binding.

This assay deals with human β-Klotho extracellular domain (aa 1–992) His6 (human) (UniProt Q86Z14). Kind of assay: BLI; Octet RED; biotinylated β-Klotho ECD His6 (10 μg/ml) loaded onto streptavidin biosensors; analyte at various concentrations in kinetics buffer, 5 min association, 10 min dissociation; globally fitted 1:1 binding model. In general terms: In BLI a coated tip is dipped into the sample, and binding shifts an interference pattern.
UniProt Q86Z14, sequence (Q86Z14 1-992): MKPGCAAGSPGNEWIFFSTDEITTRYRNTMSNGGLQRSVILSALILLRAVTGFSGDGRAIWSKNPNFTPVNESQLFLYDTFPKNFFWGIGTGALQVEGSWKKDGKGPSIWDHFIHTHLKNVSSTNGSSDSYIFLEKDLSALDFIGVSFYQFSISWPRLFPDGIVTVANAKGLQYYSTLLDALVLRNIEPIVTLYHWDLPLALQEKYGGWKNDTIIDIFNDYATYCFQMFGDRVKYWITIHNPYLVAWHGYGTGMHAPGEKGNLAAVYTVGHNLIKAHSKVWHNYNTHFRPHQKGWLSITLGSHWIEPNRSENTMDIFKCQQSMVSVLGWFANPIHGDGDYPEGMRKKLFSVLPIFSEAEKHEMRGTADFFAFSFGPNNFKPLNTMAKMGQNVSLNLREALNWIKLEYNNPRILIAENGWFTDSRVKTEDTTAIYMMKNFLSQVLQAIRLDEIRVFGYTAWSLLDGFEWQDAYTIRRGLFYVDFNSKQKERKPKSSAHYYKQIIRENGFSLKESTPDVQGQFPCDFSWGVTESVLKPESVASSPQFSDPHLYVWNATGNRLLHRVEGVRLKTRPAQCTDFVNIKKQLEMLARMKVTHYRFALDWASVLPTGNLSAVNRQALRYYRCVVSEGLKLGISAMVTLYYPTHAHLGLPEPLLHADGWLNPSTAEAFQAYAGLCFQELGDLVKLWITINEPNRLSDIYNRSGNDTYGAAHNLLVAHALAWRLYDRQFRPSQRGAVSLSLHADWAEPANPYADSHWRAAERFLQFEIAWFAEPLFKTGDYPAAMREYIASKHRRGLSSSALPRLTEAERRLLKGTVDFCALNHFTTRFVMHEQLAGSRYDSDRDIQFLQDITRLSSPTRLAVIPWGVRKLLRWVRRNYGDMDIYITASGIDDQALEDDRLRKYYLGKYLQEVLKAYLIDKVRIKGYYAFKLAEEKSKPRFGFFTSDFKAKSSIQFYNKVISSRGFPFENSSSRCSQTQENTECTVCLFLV

fibroblast growth factor 21 (ligand) gave a Kd of 3.55 nM.
